# Assay results as given in PMC5583147.
# Tests used:
# C3b = C3b (UniProt P01024); assay: SPR; C3b amine-coupled on CM5 chip; Biacore T100, 25 C; HBS-N with 2 mM NiCl2; factor B 54 nM, Lufaxin 1 uM, together or Lufaxin after formation of C3b-B
# C3b-B complex [1] = target: C3b-B complex (UniProt P01024); assay: as above
# C3b-B complex [2] = target: C3b-B complex (UniProt P01024); assay: SPR; C3b amine-coupled on CM5 chip; Biacore T100, 25 C; HBS-N (10 mM HEPES pH 7.4, 150 mM NaCl) with 2 mM MgCl2; factor B 54 nM, factor D 20 nM, Lufaxin up to 1 uM injected in combinations
# Chain of Lufaxin (Q5WPU8 24-301 limits assumed): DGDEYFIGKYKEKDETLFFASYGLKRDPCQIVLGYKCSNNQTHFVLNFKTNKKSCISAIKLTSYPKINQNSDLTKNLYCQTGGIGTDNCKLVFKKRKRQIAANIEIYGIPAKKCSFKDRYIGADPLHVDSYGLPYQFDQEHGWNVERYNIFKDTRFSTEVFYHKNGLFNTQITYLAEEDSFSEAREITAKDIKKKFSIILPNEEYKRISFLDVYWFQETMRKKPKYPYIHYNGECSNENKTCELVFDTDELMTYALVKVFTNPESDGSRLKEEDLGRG
# Chain of UniProt P01024 (P01024 23-667, chain 1 of 2): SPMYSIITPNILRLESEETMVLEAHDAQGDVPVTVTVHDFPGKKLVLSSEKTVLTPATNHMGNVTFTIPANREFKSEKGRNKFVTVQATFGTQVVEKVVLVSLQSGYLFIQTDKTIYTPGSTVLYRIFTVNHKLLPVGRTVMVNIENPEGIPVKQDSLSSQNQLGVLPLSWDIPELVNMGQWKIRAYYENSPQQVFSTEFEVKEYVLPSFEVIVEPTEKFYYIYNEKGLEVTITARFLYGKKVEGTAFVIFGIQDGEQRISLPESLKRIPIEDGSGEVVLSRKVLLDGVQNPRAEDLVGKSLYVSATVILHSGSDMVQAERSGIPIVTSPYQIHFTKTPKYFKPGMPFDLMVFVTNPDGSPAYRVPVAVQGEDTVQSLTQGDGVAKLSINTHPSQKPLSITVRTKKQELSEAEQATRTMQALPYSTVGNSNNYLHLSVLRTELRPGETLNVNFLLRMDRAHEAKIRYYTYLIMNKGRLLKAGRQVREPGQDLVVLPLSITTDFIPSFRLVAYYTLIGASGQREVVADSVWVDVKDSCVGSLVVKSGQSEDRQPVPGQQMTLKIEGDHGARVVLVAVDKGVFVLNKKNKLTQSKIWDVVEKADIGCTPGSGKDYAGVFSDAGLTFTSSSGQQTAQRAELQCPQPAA
# Chain of UniProt P01024 (P01024 749-1663, chain 2 of 2): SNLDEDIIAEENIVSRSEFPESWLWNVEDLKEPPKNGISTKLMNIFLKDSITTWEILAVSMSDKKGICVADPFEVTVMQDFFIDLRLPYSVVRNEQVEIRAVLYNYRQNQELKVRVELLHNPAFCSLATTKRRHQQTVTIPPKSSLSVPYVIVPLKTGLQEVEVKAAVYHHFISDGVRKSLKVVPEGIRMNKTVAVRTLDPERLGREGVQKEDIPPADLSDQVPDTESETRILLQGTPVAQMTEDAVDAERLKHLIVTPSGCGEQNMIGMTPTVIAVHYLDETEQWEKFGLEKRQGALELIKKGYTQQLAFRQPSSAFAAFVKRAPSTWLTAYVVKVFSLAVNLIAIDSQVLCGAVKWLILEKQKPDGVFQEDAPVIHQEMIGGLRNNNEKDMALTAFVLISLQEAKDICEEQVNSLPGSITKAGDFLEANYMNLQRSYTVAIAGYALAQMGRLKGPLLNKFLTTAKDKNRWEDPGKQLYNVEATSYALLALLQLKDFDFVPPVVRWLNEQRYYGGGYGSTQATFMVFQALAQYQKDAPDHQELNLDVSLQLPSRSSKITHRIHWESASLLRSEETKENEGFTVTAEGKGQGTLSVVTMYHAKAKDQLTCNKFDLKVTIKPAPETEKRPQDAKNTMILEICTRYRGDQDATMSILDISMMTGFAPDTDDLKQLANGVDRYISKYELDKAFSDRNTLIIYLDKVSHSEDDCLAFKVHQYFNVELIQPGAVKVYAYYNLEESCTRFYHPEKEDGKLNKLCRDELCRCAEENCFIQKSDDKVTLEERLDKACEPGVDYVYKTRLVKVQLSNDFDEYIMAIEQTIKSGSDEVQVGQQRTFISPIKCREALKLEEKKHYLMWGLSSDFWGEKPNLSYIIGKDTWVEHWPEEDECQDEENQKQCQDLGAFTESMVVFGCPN
half-time of dissociation of C3b-B (Ni2+) (C3b),half-time of dissociation of C3b-B-Lufaxin from the C3b surface (Ni2+) (C3b-B complex [1]),half-time of dissociation of C3b-B-Lufaxin from the C3b surface (Mg2+) (C3b-B complex [2]),Substance
600 s,,,factor B (natural protein)
,400 s,135 s,Lufaxin (natural protein)
